Assay results taken from patent publication US20250076311A1 (Chugai, published 2025).
Positions count from the first letter of the chain named. Names may count otherwise.

Experiments:
[1] = target: T1, cynomolgus monkey FcγRIIa3 extracellular domain with C-terminal His-tag (cynomolgus monkey); test: SPR (BIACORE), antibody captured, FcgR analyte
T1 construct: also called cyno FcgRIIa3; cynoFcγRIIa3; not shown: His-tag added to the C-terminus
T1 chain: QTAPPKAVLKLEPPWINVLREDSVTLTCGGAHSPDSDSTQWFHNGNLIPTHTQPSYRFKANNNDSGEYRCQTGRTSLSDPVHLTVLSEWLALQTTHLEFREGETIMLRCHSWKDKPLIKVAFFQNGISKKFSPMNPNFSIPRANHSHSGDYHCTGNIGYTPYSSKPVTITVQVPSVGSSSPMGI

[2] = target: T2, cynomolgus monkey FcγRIIb extracellular domain with C-terminal His-tag (cynomolgus monkey); test: SPR (BIACORE), antibody captured, FcgR analyte
T2 construct: also called cyno FcgRIIb; cynoFcγRIIb; not shown: His-tag added to the C-terminus
T2 chain: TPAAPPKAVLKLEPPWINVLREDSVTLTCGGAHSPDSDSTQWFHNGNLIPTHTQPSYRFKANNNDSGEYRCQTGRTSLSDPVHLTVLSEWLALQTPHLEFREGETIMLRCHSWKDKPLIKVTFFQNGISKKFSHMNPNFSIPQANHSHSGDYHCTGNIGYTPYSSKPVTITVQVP

[3] = target: T3, cynomolgus monkey FcγRIIIaS extracellular domain with C-terminal His-tag (cynomolgus monkey, UniProt A3RFZ7 21-206 (rhesus entry)); test: SPR (BIACORE), antibody captured, FcgR analyte
T3 construct: also called cyno FcgRIIIaS; cynoFcγRIIIaS; not shown: His-tag added to the C-terminus

[4] = target: T4, human FcγRIIaR extracellular domain with C-terminal His-tag (human, UniProt P12318 34-217); test: SPR (BIACORE), antibody captured, FcgR analyte
T4 construct: also called human FcgRIIaR; FcγRIIa type R; not shown: His-tag added to the C-terminus
T4 chain: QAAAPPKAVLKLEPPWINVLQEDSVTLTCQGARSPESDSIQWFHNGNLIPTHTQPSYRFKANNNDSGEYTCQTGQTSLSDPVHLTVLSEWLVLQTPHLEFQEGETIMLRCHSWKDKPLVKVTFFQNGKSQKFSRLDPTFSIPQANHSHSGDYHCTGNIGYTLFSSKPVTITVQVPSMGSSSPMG

[5] = target: T5, human FcγRIIIaV extracellular domain with C-terminal His-tag (human, UniProt P08637 17-208); test: SPR (BIACORE), antibody captured, FcgR analyte
T5 construct: also called human FcgRIIIaV; not shown: His-tag added to the C-terminus
T5 sequence (P08637 17-208 F176V): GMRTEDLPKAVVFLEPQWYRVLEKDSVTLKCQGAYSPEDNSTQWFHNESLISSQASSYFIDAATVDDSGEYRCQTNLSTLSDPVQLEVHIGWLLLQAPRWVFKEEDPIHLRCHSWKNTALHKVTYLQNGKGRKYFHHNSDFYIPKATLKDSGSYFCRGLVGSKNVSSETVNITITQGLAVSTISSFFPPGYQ

[6] = target: T6, cynomolgus monkey FcγRIIb extracellular domain, His-tagged (cynomolgus monkey); test: SPR (BIACORE), antibody captured, FcγR analyte, 25 C; KD of SG1 divided by KD of variant
T6 construct: also called cyno FcγRIIb; cynoFcgRIIb
T6 chain: T2 chain
Description: (§1) The kinetic analysis of interactions between these antibodies and FcγR was carried out using BIACORE® T200 or BIACORE® 4000 (GE Healthcare). HBS-EP+ (GE Healthcare) was used as the running buffer, and the measurement temperature was set to 25° C. […] After the measurement, the antibody captured on the chip was washed off by allowing reaction with 10 mM glycine-HCl, pH1.5 and 25 mM NaOH so that the chip was regenerated and used repeatedly. The sensorgrams obtained as measurement results were analyzed by the 1:1 Langmuir binding model using the BIACORE® Evaluation Software to calculate the binding rate constant ka (L/mol/s) and dissociation rate constant kd (1/s), and the dissociation constant KD (mol/L) was calculated from these values. […] Regarding such interactions, KD values were calculated using the following 1:1 binding model described in BIACORE® T100 Software Handbook BR1006-48 Edition AE.

[7] = target: T7, cynomolgus monkey FcγRIIIaS extracellular domain, His-tagged (cynomolgus monkey, UniProt Q8SPW2 21-206 at identity 1.00)); test: as above
T7 construct: also called cyno FcγRIIIaS; cynoFcgRIIIaS
T7 chain: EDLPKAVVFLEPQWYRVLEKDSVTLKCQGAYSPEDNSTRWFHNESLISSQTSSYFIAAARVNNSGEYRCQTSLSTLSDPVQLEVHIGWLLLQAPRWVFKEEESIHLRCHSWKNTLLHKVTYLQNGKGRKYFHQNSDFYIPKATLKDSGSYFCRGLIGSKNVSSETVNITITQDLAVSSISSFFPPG
Description: as §1

[8] = target: T8, cynomolgus monkey FcγRIIa3 extracellular domain with C-terminal His-tag (cynomolgus monkey); test: SPR (Biacore), KD of SG1 / KD of variant
T8 construct: also called cyno FcgRIIa3; cynoFcγRIIa3
T8 chain: T1 chain
Description: as §1

[9] = target: T9, human FcγRIIaR extracellular domain with C-terminal His-tag (human, UniProt P12318 34-217); test: SPR (Biacore), antibody captured, FcgR analyte
T9 construct: also called human FcgRIIaR; FcγRIIa (type R)
T9 chain: T4 chain
Description: as §1

[10] = target: T10, human FcγRIIIaV extracellular domain with C-terminal His-tag (human, UniProt P08637 17-208); test: SPR (Biacore), antibody captured, FcgR analyte
T10 construct: also called human FcgRIIIaV
Description: as §1
T10 sequence (P08637 17-208 F176V): as the sequence (P08637 17-208 F176V) above

[11] = target: T11, cynomolgus monkey FcγRIIa2 extracellular domain with C-terminal His-tag (cynomolgus monkey); test: SPR (Biacore), antibody captured, FcgR as analyte
T11 construct: also called cyno FcgRIIa2; cynoFcγRIIa2
T11 chain: T1 chain with I127K, K130N, P133H, R142Q
Description: as §1

[12] = target: T12, human FcγRIIb extracellular domain with C-terminal His-tag (human, UniProt P31994 43-217); test: SPR (BIACORE), antibody captured, FcgR analyte
T12 construct: also called human FcgRIIb; not shown: His-tag added to the C-terminus
T12 sequence: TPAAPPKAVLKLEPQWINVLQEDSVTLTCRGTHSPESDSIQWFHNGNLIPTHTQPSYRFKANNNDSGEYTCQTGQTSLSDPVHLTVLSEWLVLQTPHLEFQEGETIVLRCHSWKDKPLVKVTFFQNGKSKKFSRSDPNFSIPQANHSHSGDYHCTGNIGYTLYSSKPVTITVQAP

[13] = target: T13, human FcγRIIb extracellular domain with C-terminal His-tag (human, UniProt P31994 43-217); test: SPR (Biacore), KD of SG1 divided by KD of variant
T13 construct: also called human FcgRIIb
T13 sequence: T12 sequence
Description: as §1

B1: M103205H795-MY210/M103202L889-SK1 (antibody, human IgG1, kappa, name in EU numbering)
heavy: QVTLKESGPVLVKPTETLTLTCTVSGIDLSHDDISWVRQAPGKGLEWVGIISYAGSTYYASWAKGRLTISKDTSKNQVVLTMTNMDPVDTATYYCARGVPAYSHGGDLWGQGTLVTVSSASTKGPSVFPLAPSSKSTSGGTAALGCLVKDYFPEPVTVSWNSGALTSGVHTFPAVLQSSGLYSLSSVVTVPSSSLGTQTYICNVNHKPSNTKVDKKVEPKSCDKTHTCPPCPAPELLNGPSVFLFPPKPKDTLMISRTPEVTCVVVDVSDEDPEVKFNWYVDGVEVHNAKTKPREEQYNSTYRVVSVLTVLHQDWLNGKEYKCKVSNTALPKPIEKTISKAKGQPREPQVYTLPPSREEMTKNQVSLTCLVKGFYPSDIAVEWESNGQPENNYKTTPPVLDSDGSFFLYSKLTVDKSRWQQGNVFSCSVMHEALHNHYTQKSLSLSP
light: DIVMTQSPATLSLSPGERATLSCTSSQSVYHANWLSWFQQKPGQPPKLLIYWASTLAYGVPSRFSGSGSGTDFTLTISSLQPEDAATYYCAGGYGGGRYAFGQGTKVEIKRTVAAPSVFIFPPSDEQLKSGTASVVCLLNNFYPREAKVQWKVDNALQSGNSQESVTEQDSKDSTYSLSSTLTLSKADYEKHKVYACEVTHQGLSSPVTKSFNRGEC
notes: Fc variant of MS1032LO06-SG1; positions in EU numbering
- Kd [1]: 2300 nM
- Kd [2]: 280 nM
- Kd [3]: 2400 nM
- Kd [4]: 1400 nM
- Kd [5]: 31000 nM

B2: M103205H795-MY445/M103202L889-SK1 (antibody, human IgG1, kappa, name in EU numbering)
heavy: B1 heavy with P234G, N238T, T328K
light: B1 light
- KD fold (SG1 = 1) [6]: 1.3 fold
- KD fold (SG1 = 1) [7]: 0.2 fold

B3: M103205H795-MY448/M103202L889-SK1 (antibody, human IgG1, kappa)
heavy: B1 heavy with P234K, N238T, T328K
light: B1 light
notes: Substitutions in EU numbering on SG1
- KD fold (SG1 = 1) [8]: 0.6 fold
- Kd [9]: 21 nM
- Kd [10]: 1300 nM

B4: M103205H795-MY446/M103202L889-SK1 (antibody, human IgG1, kappa, name in EU numbering)
heavy: B1 heavy with P234H, N238T, T328K
light: B1 light
- KD fold (SG1 = 1) [6]: 2.5 fold
- KD fold (SG1 = 1) [7]: 0.2 fold

B5: M103205H795-MY448/M103202L889-SK1 (antibody, human IgG1, kappa, name in EU numbering)
heavy: B1 heavy with P234K, N238T, T328K
light: B1 light
- KD fold (SG1 = 1) [6]: 0.8 fold
- KD fold (SG1 = 1) [7]: 0.2 fold

B6: M103205H795-MY516 / M103202L889-SK1 (antibody)
heavy: B1 heavy with N238T, S241V, Q297L, S300L, T328K
light: B1 light
notes: 'Q235L' copied as printed, probably Q295L
- Kd [11]: 1300 nM

B7: M103205H795-MY265/M103202L889-SK1 (antibody)
heavy: B1 heavy with N238T, T328K
light: B1 light
notes: Substitutions in EU numbering on SG1; the cell prints I236T, the text gives Thr at 236 of MY201 (G236T)
- Kd [10]: 5400 nM

B8: M103205H795-MY288/M103202L889-SK1 (antibody, human IgG1, kappa, name in EU numbering)
heavy: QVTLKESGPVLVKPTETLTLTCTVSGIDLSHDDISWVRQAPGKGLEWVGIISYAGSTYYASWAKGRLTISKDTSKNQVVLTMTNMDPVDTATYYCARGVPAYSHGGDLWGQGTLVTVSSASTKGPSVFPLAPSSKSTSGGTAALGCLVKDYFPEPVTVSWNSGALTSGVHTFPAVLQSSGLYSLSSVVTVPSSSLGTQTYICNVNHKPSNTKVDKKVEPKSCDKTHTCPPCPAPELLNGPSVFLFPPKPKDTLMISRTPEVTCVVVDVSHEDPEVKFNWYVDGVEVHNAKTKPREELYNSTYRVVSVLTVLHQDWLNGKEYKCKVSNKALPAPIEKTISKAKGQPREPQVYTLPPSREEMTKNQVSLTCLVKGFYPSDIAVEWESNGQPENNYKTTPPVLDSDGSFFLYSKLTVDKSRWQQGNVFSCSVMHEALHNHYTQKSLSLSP
light: B1 light
notes: as for B1
- Kd [2]: 1200 nM
- Kd [3]: 1.3 nM
- Kd [12]: 5100 nM

B9: M103205H795-MY389 / M103202L889-SK1 (antibody, human IgG1, kappa, name in EU numbering)
heavy: B1 heavy with N238T, S241L, T328K
light: B1 light
- Kd [11]: 1600 nM

B10: M103205H795-MY524 / M103202L889-SK1 (antibody, human IgG1, kappa, name in EU numbering)
heavy: B1 heavy with A233G, N238T, Q297L, T328K
light: B1 light
- KD fold (SG1 = 1) [13]: 4.6 fold
- Kd [11]: 1100 nM
